Target: T1, ARG2 (Homo sapiens, UniProt P78540)
T1 sequence (P78540 23-354): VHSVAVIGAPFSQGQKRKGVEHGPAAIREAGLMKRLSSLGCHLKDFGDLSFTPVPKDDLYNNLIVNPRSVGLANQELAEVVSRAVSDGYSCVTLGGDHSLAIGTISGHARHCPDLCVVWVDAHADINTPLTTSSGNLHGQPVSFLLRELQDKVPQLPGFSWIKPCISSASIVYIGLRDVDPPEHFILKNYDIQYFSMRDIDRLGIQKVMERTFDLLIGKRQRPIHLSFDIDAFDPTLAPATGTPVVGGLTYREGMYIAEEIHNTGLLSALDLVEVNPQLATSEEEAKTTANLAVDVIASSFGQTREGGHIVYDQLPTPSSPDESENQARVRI
Assay: Isothermal titration calorimetry of BEC with ARG2 and ARG2-C0021158 fab complex
Format: binding
Set-up: human ARG2 (aa23-354); His10 (C); made in house; host or cells: E. coli BL21 (DE3)
Conditions: 20 μM ARG2 and 20 μM C0021158 fab, 0.50 mM BEC titrated, 25° C.
Method: To assess the accessibility of the ARG2 active site, we analysed binding of the ARG2 small-molecule inhibitor S-(2-Boronoethyl)-L-cysteine hydrochloride (BEC) by isothermal titration calorimetry (ITC) using a VP ITC (MicroCal) set to 25° C. (FIG. 15B). BEC is an arginine analogue that binds to the active site of ARG2. First, volumes of 10 μl of a solution containing 0.75 mM BEC were added to 20 μM of ARG2 (monomer concentration). The resulting thermogram was integrated using NITPIC and the binding isotherm was fitted with SEDPHAT using a one-binding site model. In a second experiment, volumes of 10 μl of 0.50 mM BEC were added to a solution containing a pre-incubated 1:1 molar mixture of C0021158 fab and ARG2 (both 20 μM, incubation 1 h at 20° C.).

B1: C0021158 IgG: anti-ARG2 antibody, VH SEQ ID NO: 282, VL SEQ ID NO: 287; IgG and Fab versions carry these sequences (antibody, listed as Homo sapiens, V domains shown)
VH: EVQLLESGGGLVQPGGSLRLSCAASGFTFRYEVAAWVRQAPGKGLEWVSAISGPIPKGYYADSVKGRFTISRDNSKNTLYLQMNSLRAEDTAVYYCARLRADLGLYMDLWGRGTLVTVSS
VL: QSVLTQPPSVSAAPGQKVTISCSGSSSNIGNHYVSWYQQLPGTAPKLLIYDNSERTAGVPDRFSGSKSGTSATLGITGLQTGDEADYYCGTWDELTSNLVFGGGTKLTVL
modifications: C0021158 IgG
- effect on binding of BEC to ARG2 (ITC): prevents BEC from binding

Source: patent US20220403048A1, “BINDING MOLECULES TO ARGINASE II [ARG2]” (Cancer Research Technology Limited, priority 2019, published 2022)
